# From patent US20190375826A1
# Read-outs that look alike come from different tables or passages of the source.
# Tests used:
# [1] = biological target: DENV4 NS1 (nonstructural protein 1 of dengue virus type 4 strain H241) (dengue virus serotype 4, strain H241)
# [2] = biological target: DENV4 NS1 (nonstructural protein 1 of dengue virus type 4 strain H241) (dengue virus serotype 4, strain H241); remark: listed apart in the source
# [3] = biological target: DENV2 NS1 (nonstructural protein 1 of dengue virus type 2 strain 16681) (dengue virus serotype 2, strain 16681)
# [4] = biological target: DENV2 NS1 (nonstructural protein 1 of dengue virus type 2 strain 16681) (dengue virus serotype 2, strain 16681); remark: listed apart in the source
# [5] = biological target: DENV3 NS1 (nonstructural protein 1 of dengue virus type 3 strain H87) (dengue virus serotype 3, strain H87)
# [6] = biological target: DENV3 NS1 (nonstructural protein 1 of dengue virus type 3 strain H87) (dengue virus serotype 3, strain H87); remark: listed apart in the source
binder,measurement,setting,value
"mAb22-1.5 (antibody, V domains shown) VH: EVQLQQSGPELVKPGASVKISCKASGYTFTDYNIHWVKQSPGKSLEWIGYIYPDNGDTGYNQIFKNKATLTVDTSSSAAYMELRSLTSEDSAVYYCVRRVLLDSWGQGTSVTVSS VL: DIQMTQTTSSLSASLGDRVTISCSASQDINNFLNWYQQKPDGTIKLLIYYTSSLQSGVPSRFSGSGSGTDYSLTISNLEPEDIATYYCQQYSKLPRTFGGGTKLEIKR",minimum detectable concentration of NS1 proteins,[1],0.977 ng/mL
same,minimum detectable concentration of NS1 proteins,[2],62.5 ng/mL
"mAb33-7.1 (antibody, V domains shown) VH: EVQLQESGAELAKPGASVKMSCKASGYTFTSYWMHWVKQRPGQVLEWIGYINPNTGFTEYSQKFKDKATLTAVKSSSTAYIQLTSLTSDDSAVYYCARENYRYDGAMDYWGQGTSVTVSS VL: DIVLTQSPALMAAFPGDRVTITCSVSSSVSSSNLHWYQQKSETSPKPWIYGTSTLASGVPVRFSGSGSGTSYSLTISSMEAEDAATYYCQQWSSYPLTFGAGTKLELKR",minimum detectable concentration of NS1 proteins,[3],3.91 ng/mL
same,minimum detectable concentration of NS1 proteins,[4],62.5 ng/mL
"mAb43-1.3 (antibody, V domains shown) VH: GELQESGPQVVRPGTSVKISCKASGYSFSNYWMHWVKQRPGQGLEWIGVIDPSDSETRLNQKFKDKATLTVDKSSSTAYMQLSSPTSEDSAIYYCARSQFGLRFAYWGQGTLVTVSA VL: DIVMTQSPSSMTVTAGEKVTMSCQSSQSLFNSGTQKNYLTWYQQKPGQPPKLLISWASTRDSGVPDRFTGSGSGTDFTLTINGVQAEDLAVYFCQNDYDSPYTFGGGTKLEIKR",minimum detectable concentration of NS1 proteins,[5],3.91 ng/mL
same,minimum detectable concentration of NS1 proteins,[6],62.5 ng/mL
